Data reported in the nanobody polyreactivity screen of Harvey et al. (2022).

Experiment: yeast display, Sf9 membrane polyspecificity reagent, FACS + sequencing; frameworks hold sequencing errors
How it was run: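 Sorting gates, low and high (top ~1%), were placed on anti-HA fluorescence to track expression and on streptavidin fluorescence to track reagent binding. A clone's polyreactivity label is taken from the gate it came out of. The reagent was 10% biotinylated, detergent-solubilized Sf9 membrane, applied for 1 hour at 4 °C to galactose-induced yeast display cells.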

## QVQLVESGGGLVQAGGSLRLSCAASGFTFYGYAMGWYRQAPGKEREFVADISSRDGSTYYADSVKGRFTISRDNAKNTVYLQMNSLKPEDTAVYYCAADSGQYKWSDYDYWGQGTQVTVSS
  polyreactivity (PSR sort gate): low polyreactivity

## QVQLVESGGGLVQAGGSLRLSCAASGFTFYGYAMGWYRQAPGKERELVAAISSSGGRTYYADSVKGRFTISRDNSKNTVYLQMNSLKPEDTAVYYCAADYTSRDYYYWGQGTQVTVSS
  polyreactivity (PSR sort gate): high polyreactivity

## QVQLVESGGGLVQAGGSLRLSCAASGFTFYGYAMGWYRQAPGKERELVADISYRGGSTYYADSVKGRFTISRDNAKNTVYLQMNRLKPEDTAVYYCAARATPTYYAGQREDYNYWGQGTQVTVSS
  polyreactivity (PSR sort gate): high polyreactivity

## QVQLVESGGGLVQAGGSLRLSCAASGFTFYHNAMGWYRPAPGKERELVAAITWDSGSTYYADSVKGRFTISRDNAKNTAYLQMNSLKPEDPAVYYCAADIASGYYWYDYWGQGTQVTVSS
  polyreactivity (PSR sort gate): low polyreactivity

## QVQLVESGGGLVQAGGSLRLSCAASGFTFYHNTMGWYRQAPGKEREFVATINFIGGSTYYADSVKGRFTISRDNAKNTVYLQMNSLKPEDTAVYYCNARSRYLYFLRFDYWGQGTQVTVSS
  polyreactivity (PSR sort gate): high polyreactivity

## QVQLVESGGGLVQAGGSLRLSCAASGFTFYHYAMGWSRQAPGKESELVATISKRGGSTYYADSVKGRFTISRDNAKNTVYLQMNSLKPQDTAVFYCAAKIYWSSLKMDYWGQGTQVTVSS
  polyreactivity (PSR sort gate): high polyreactivity

## QVQLVESGGGLVQAGGSLRLSCAASGFTFYIYAMGWYRQAPGKERELVAAISSGGGRTYYADSVKVRFTISRDNAKNTVYLQMTSLKPEDTAVYYCAARGRAFSYKNYGSDYWGQVTQVTVSS
  polyreactivity (PSR sort gate): high polyreactivity

## QVQLVESGGGLVQAGGSLRLSCAASGFTFYKKTMGWYRQAPGKERELVAAISSSGSSTYYADAVKGRVTISRDNAKNTVYLQMNSLKPEDSAVEYCAAGRFAYHDDYWGQGTQVTVSS
  polyreactivity (PSR sort gate): high polyreactivity

## QVQLVESGGGLVQAGGSLRLSCAASGFTFYKNAMGWYRQAPGKERELVARITGRGGSTYYADSVKGRFTISRDNAKNTVYLQMNSLKPEDTAVYYCAVDGLVWRNRGFDYWGQGTQVTVSS
  polyreactivity (PSR sort gate): high polyreactivity

## QVQLVESGGGLVQAGGSLRLSCAASGFTFYKYAMGCYRQPPGKERELVAAITGRGGSTYYADSVKGRFTISRDNAKNTVYLQMNILKPEDTAVYYCAARTPSYEMDYWGQGTQVTVSS
  polyreactivity (PSR sort gate): high polyreactivity

## QVQLVESGGGLVQAGGSLRLSCAASGFTFYKYAMGWYRQAPGKERELVAAISYRGGRTYYADSVKGRFTISRDNAKNTVYLQMNSLKPEDTAVYYCAARGYVWNIGRYYWGQGTEVTVSS
  polyreactivity (PSR sort gate): high polyreactivity

## QVQLVESGGGLVQAGGSLRLSCAASGFTFYKYTMGWYRQAPGKERELVAAIRSSGGRTYYADSVKGRFTISRDNAKNTVYLQMNSLKPEDTAVYYCNAVVDRLIFWQFDYWGQGTQVTVSS
  polyreactivity (PSR sort gate): high polyreactivity

## QVQLVESGGGLVQAGGSLRLSCAASGFTFYLNAMGWYRQAPGKERELVAAITGSGDDTYYADSVKGRFTISRDNAKNTVYLQMNSLKPEDTAVYYCAADVSYWYDYWGQGTQVTVSS
  polyreactivity (PSR sort gate): high polyreactivity

## QVQLVESGGGLVQAGGSLRLSCAASGFTFYNNAMGWYRPAPGKERELVAVITSNGGRTYYADSVKGRFTISRDNAKNTVYLQMNSVKPEDTAVYYCAKDYKALYLYHYRISGGDVDYWGQGTQVTVSS
  polyreactivity (PSR sort gate): low polyreactivity

## QVQLVESGGGLVQAGGSLRLSCAASGFTFYNYAMGWYRQAPGKERELVAAISWSGGSTHYADSVKGRFTISRDNAKNTVYLQMNSLKPEDTAVYYCAKFGVLGYYTYYYWGQGTQVTVSS
  polyreactivity (PSR sort gate): low polyreactivity

## QVQLVESGGGLVQAGGSLRLSCAASGFTFYNYAMGWYRQAPGKERELVAAITSSGTSTYYADSVKGRFTISRDNAKNTVYLQMNSLKPEDTAVYYCNAVSSYSYSYDYWGQGTQVTVSS
  polyreactivity (PSR sort gate): low polyreactivity

## QVQLVESGGGLVQAGGSLRLSCAASGFTFYQYAMGWYRQAPGKERELVAAISSGGSTYYADSVKGRFTISRDNAKNTVYLQMNSLKPEDTAVYYCAARFYRPGVKQYGYWGQGTQVTVSS
  polyreactivity (PSR sort gate): high polyreactivity

## QVQLVESGGGLVQAGGSLRLSCAASGFTFYQYAMGWYRQAPGKERELVAAITWNGGSTYYADSVKGRFTISRDNAKNTVYLQMNSLKPEDTAVYYCAAESPSKFDYDYWGQGTQVTVSS
  polyreactivity (PSR sort gate): high polyreactivity

## QVQLVESGGGLVQAGGSLRLSCAASGFTFYRNAMGWYRQAPGKERELVAAISSRGGSTYYADSVKGRFTISRDNAKNTVYLQLNSMKPEDNAVYYCAAYGNYNEYDYGGQGTQVTVSS
  polyreactivity (PSR sort gate): high polyreactivity

## QVQLVESGGGLVQAGGSLRLSCAASGFTFYRNAMGWYRQAPGKERELVAAISSRGGSTYYADSVKGRFTISRDNAKNTVYLQMNSLKPEDTAVYYCAAYGNYNEYDYWGQGTQVTVSS
  polyreactivity (PSR sort gate): high polyreactivity

## QVQLVESGGGLVQAGGSLRLSCAASGFTFYRNAMGWYRQAPGKERELVARISRRGGITSYADSVKGRFTISRDNAKNTVYLQMNSLKTEDTAVYYCKAEKRGQSYRFDYWGQGTQVTVSS
  polyreactivity (PSR sort gate): high polyreactivity

## QVQLVESGGGLVQAGGSLRLSCAASGFTFYRNTMGWYRQAPGKERELVAAISTRDGSTYYADSVKGRFTISRDNAKYTVYLPMNSLKPEDTAVYYCAVLTYRGRFEYWGQGTQVTVSS
  polyreactivity (PSR sort gate): high polyreactivity

## QVQLVESGGGLVQAGGSLRLSCAASGFTFYRNTMGWYRQAPGKERELVAAITQRGGSTYYADSVKGRFTISRDNAKNTVYLQMNSLKPEDTAVYYCNRDVKVLYASSHSPYGYDHWGQGTQVTVSS
  polyreactivity (PSR sort gate): low polyreactivity

## QVQLVESGGGLVQAGGSLRLSCAASGFTFYRYAIGWYRQAPGKETQFFASISRSGGSTYYADSVKGRFTISRDNAKNTVYLQMNSLKPEDTEVYYCAKSYTSSPFRIRDYWGQGTQVTVSS
  polyreactivity (PSR sort gate): high polyreactivity

## QVQLVESGGGLVQAGGSLRLSCAASGFTFYRYAMGSYRQAPGKERELVAAITFRGDSTYYADSVKGRFTISRDNAKNTVYLQMNSLKPEDTAVYYCAADRPSGWYSYLSLYIVRRGYWGQGTQVTVSS
  polyreactivity (PSR sort gate): low polyreactivity

## QVQLVESGGGLVQAGGSLRLSCAASGFTFYRYAMGWYRPAPGKERELVAAITSGGSTYYADSVKGRCTISRDNAKNTVFLQMISLKPEDTAVYSCAAQKARVSPGAWTRYVYWGQGTQVTVSS
  polyreactivity (PSR sort gate): high polyreactivity

## QVQLVESGGGLVQAGGSLRLSCAASGFTFYRYAMGWYRPATGKERELVATISASGGSTYYADSVKGRFTISRDNAKNTVYLQMNSLKPEDTAVYYCAVRYKSWYGFNYWGQGTQVTVSS
  polyreactivity (PSR sort gate): high polyreactivity

## QVQLVESGGGLVQAGGSLRLSCAASGFTFYRYAMGWYRQAPGKERELVAAISGSGCSKYYADSVKGRFTISRDNAKNTVYLHRNSLKPEDTAVYYCNTVWFYGAKYDYWGQGTQVTVSS
  polyreactivity (PSR sort gate): high polyreactivity

## QVQLVESGGGLVQAGGSLRLSCAASGFTFYRYAMGWYRQAPGKERELVAAISQRGGRTYYADSVKGRFTISRDNAKTTVYLQMNSLKPEDTAVYYCNARYSGYGLYDYWGQGTQVTVSS
  polyreactivity (PSR sort gate): high polyreactivity

## QVQLVESGGGLVQAGGSLRLSCAASGFTFYRYAMGWYRQAPGKERELVAAISTSGVSTYYADSVKGRFTISRDNAKNTVYLQMNSLKPEDTAVYYCAKAGWRGSYIYYRFRVGYDSWGQGTQVTVSS
  polyreactivity (PSR sort gate): high polyreactivity

## QVQLVESGGGLVQAGGSLRLSCAASGFTFYRYTMGWNRQAPGKERELVASITRRGGSTYYADSVKGRFTISRDNAKNTVYFQMNSLKPEDTAVYYCNAATPVWQSGTYEYWGQGTQVTVSS
  polyreactivity (PSR sort gate): high polyreactivity

## QVQLVESGGGLVQAGGSLRLSCAASGFTFYRYTMGWYRQPPGKERELVAAISARGVSTYYADSVKGRFTISRDNAKNTVYLQMNSLKPEDTAVYYCYVSRYDSWGQGTQVTVSS
  polyreactivity (PSR sort gate): high polyreactivity

## QVQLVESGGGLVQAGGSLRLSCAASGFTFYSNAMGWYRQAPGKERELVAAITWRGGSTNYADSVKGRFTISRDNAKNTVYLHMNSLKPEETAVYYCAAVTYWFWPGMDYWGQGTEVTVSS
  polyreactivity (PSR sort gate): low polyreactivity

## QVQLVESGGGLVQAGGSLRLSCAASGFTFYSNAMGWYRQAPGKERELVAVINSDDDSTYYADSVKGRFTISRDNAKNTVYLQMNSLKPEDTAVYYCNKVWRVGKYPYSDRYYFGGGYWGQGTQVTVSS
  polyreactivity (PSR sort gate): high polyreactivity

## QVQLVESGGGLVQAGGSLRLSCAASGFTFYSYAMGWYRPAPGKERELVAAISSGGSTKYADSVKGRFTISRDNAKNTVYLQMNSVKPEDTEVYYCAARYYRDYRWYTYAYDYWGQGTQVTVSS
  polyreactivity (PSR sort gate): high polyreactivity

## QVQLVESGGGLVQAGGSLRLSCAASGFTFYSYAMGWYRQAPGKERELVAAISGGGGSTYYADSVKGRFTISRDNAKNTVYLQMNSLKPEDTAVYYCAKRPAYRGYGLGYYWGQGTQVTVSS
  polyreactivity (PSR sort gate): high polyreactivity

## QVQLVESGGGLVQAGGSLRLSCAASGFTFYSYAMGWYRQAPGKERELVAAISRSGGSTRYADSVKGRFTISRDNAKNTVYLQMNSLKPEDTAVYYCAARSWYPYRYSSLYYWGQGTQVTVSS
  polyreactivity (PSR sort gate): high polyreactivity

## QVQLVESGGGLVQAGGSLRLSCAASGFTFYSYAMGWYRQAPGKERELVAAISWSGTRTYYADSVKGRFTISRDNAKYTVYLQMNSLKPEDTAVYYCAARGYRYGYGYWGQGTQVTVSS
  polyreactivity (PSR sort gate): high polyreactivity

## QVQLVESGGGLVQAGGSLRLSCAASGFTFYSYAMGWYRQAPGKEWELVAAISRRGGSTYYADSVKGRFTISRDNAKNTVYLQMNCLKPEDTAVYYCAAEDSNSRYLYGYDYWGQGTQVTVSS
  polyreactivity (PSR sort gate): high polyreactivity

## QVQLVESGGGLVQAGGSLRLSCAASGFTFYSYPLGWYRQAPGKERELVAAITRGGRTYYADSVKGRFTISRDNAKTTVYLQMNSLKPDDSAVSYCNATAGHGYYYWGQGTQVTVSS
  polyreactivity (PSR sort gate): high polyreactivity

## QVQLVESGGGLVQAGGSLRLSCAASGFTFYTNAMGWYRQAPGKERELVAGINSGSSTYYADSVKGRFTISRDNAKNNVYLQMNSLKPEDTAVYYCAARRSRYIHRGFGYWGQGTQVTVSS
  polyreactivity (PSR sort gate): high polyreactivity

## QVQLVESGGGLVQAGGSLRLSCAASGFTFYTNTMGWYRQAPGKERELVAAISSGGSTYYADSVKGRFTISRDNAKNTVYLQMNRLKPEDTAVYYCNAYDYHDVADDYWGQGTQVTVSS
  polyreactivity (PSR sort gate): low polyreactivity

## QVQLVESGGGLVQAGGSLRLSCAASGFTFYTNVMAWYRQAPGKERELVAAINSGGSTNYADSVKGRFTISRDNAKNTVFLQMNSLKPEDTAVYYCNKRGTEIGYDYWGQGTQVTVLS
  polyreactivity (PSR sort gate): low polyreactivity
